Measured values published in patent publication US20250155441A1 (ROCHE DIAGNOSTICS OPERATIONS, published 2025).
The star is where a group is joined. G0F = fucosylated biantennary N-glycan, CC(=O)N[C@@H]1[C@@H](O)[C@H](O[C@@H]2O[C@H](CO)[C@@H](O[C@@H]3O[C@H](CO[C@H]4O[C@H](CO)[C@@H](O)[C@H](O)[C@@H]4O[C@@H]4O[C@H](CO)[C@@H](O)[C@H](O)[C@H]4NC(C)=O)[C@@H](O)[C@H](O[C@H]4O[C@H](CO)[C@@H](O)[C@H](O)[C@@H]4O[C@@H]4O[C@H](CO)[C@@H](O)[C@H](O)[C@H]4NC(C)=O)[C@@H]3O)[C@H](O)[C@H]2NC(C)=O)[C@@H](CO[C@@H]2O[C@@H](C)[C@@H](O)[C@@H](O)[C@@H]2O)O[C@H]1*

T1: AFP(243-261)[Asn(Fuc-GlcNAc)Bi-PEG] (human, not fully specified; Fuc-GlcNAc disaccharide on Asn corresponding to Asn-251; C-terminal E(biotinyl-PEG)-NH2)
T1 peptide: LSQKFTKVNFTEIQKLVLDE

T2: AFP(243-261)[Acetyl-243; Asn(G0F)251; Bi-PEG] (human, N-terminal acetylation; G0F (fucosylated biantennary N-glycan) on Asn corresponding to Asn-251; C-terminal E(biotinyl-PEG)-NH2)
T2 construct: Synthetic glycopeptide
T2 peptide: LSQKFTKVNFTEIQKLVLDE

T3: AFP(243-261)[Ac-243; Asn(G2)251; Bi-PEG] (human, N-terminal acetylation; G2 (non-fucosylated biantennary N-glycan) on Asn corresponding to Asn-251; C-terminal E(biotinyl-PEG)-NH2)
T3 peptide: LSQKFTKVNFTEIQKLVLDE

B1: AFP(248-256)Ac-248]amid (peptide)
peptide: Ac-TKVNFTEIQ-NH2
notes: also called BMO 35.000373
B2: AFP(243-261)[Ac-243; Asn(G0F)251]amid (peptide)
peptide: Ac-LSQKFTKVN(G0F)FTEIQKLVLD-NH2
notes: also called BMO 35.000315
B3: mAb<AFP-L3>rRb-19B12-IgG (antibody, V domains shown)
VH: QSVEESGGRLVAPGTPLTLTCTVSGIDLSTYGMGWVRQAPGKGLEWIGIIGDNGSTYYANWAKGRFTISKTSTTVDLKMTSLTTEDTATYFCARDRDPSSSGYYFKMWGPGTLVTVSL
VL: ALVMTQTPSSVSAAVGGTVTINCQASQSISSYLAWYQQKPGQPPKLLIFGASNLESGVPSRFKGSGSGTEFTLTISDLECDDAATYYCQTAFYIFSSDNAFGGGTEVVVK
notes: Recombinant rabbit IgG (B-cell supernatant in the Hit-ELISA, expressed in HEK293 afterwards); also called antibody 19B12; clone 19B12
B4: mAb<AFP-L3>rRb-3C5-IgG (antibody, V domains shown)
VH: QSVEESGGRLVAPGTPLTLTCTVSGIDLSTYGMGWVRQAPGKGLEYIGIIDSGSTYYANWAKGRFTISKTSTTVDLKMTSLTTEDTATYFCARDRDPSSSGYYFKMWGPGTLVTVSL
VL: ALVMTQTPSSVSAAVGGTVTINCQASQSIGSYLAWYQQKPGQPPRLLIYGASNLESGVPSRFKGSGSGTEFTLTISDLECDDAATYYCQTAFYIFSSDNAFGGGTEVVVK
notes: Recombinant rabbit IgG; also called antibody 3C5; clone 3C5

Experiments:
mAb<AFP-L3>rRb-3C5-IgG [1] = biological target: B4; assay: SPR affinity in solution (Biacore, CAP chip): 10 nM antibody equilibrated with the non-biotinylated, non-glycosylated peptide at varied concentration; free antibody measured by its binding to captured AFP(243-261)-G0F-Bi; n=2 [continued]
Protocol: (§1) The dissociation equilibrium constant K) was determined via the Affinity in Solution method (AiS).
(§2) With increasing peptide concentration as a competitor, the ‘free’ antibody in solution decreases. The determined free antibody concentrations for the competition experiment were plotted versus the peptide competitor concentration. The regeneration was performed using a Guanidinium/NaOH solution, as supplied by Cytiva. Two independent series were analyzed for each interaction. The Affinity in Solution model from Biacore Evaluation software was used to evaluate the data.

mAb<AFP-L3>rRb-19B12-IgG [2] = biological target: B3; assay: SPR affinity in solution (Biacore, CAP chip): 10 nM antibody equilibrated with the non-biotinylated, non-glycosylated peptide at varied concentration; free antibody measured by its binding to captured AFP(243-261)-G0F-Bi; n=2 [continued), lower plot]
Protocol: as §1, §2

mAb<AFP-L3>rRb-19B12-IgG [3] = biological target: B3; assay: SPR affinity in solution (Biacore, CAP chip): 10 nM antibody equilibrated with the non-biotinylated peptide at varied concentration; free antibody measured by its binding to captured AFP(243-261)-G0F-Bi; n=2
Protocol: as §1, §2

mAb<AFP-L3>rRb-3C5-IgG [4] = biological target: B4; assay: SPR affinity in solution (Biacore, CAP chip): 10 nM antibody equilibrated with the non-biotinylated peptide at varied concentration; free antibody measured by its binding to captured AFP(243-261)-G0F-Bi; n=2 [continued), upper plot]
Protocol: as §1, §2

[5] = biological target: T1, AFP(243-261)[Asn(Fuc-GlcNAc)Bi-PEG]; assay: SPR Biacore T200, 37 C; molar ratio (binding stoichiometry)
Protocol: (§3) Detailed kinetic investigations were performed using a BIAcore™ T200 instrument from GE Healthcare at 37° C. The 5 rabbit mAb<AFP-L3>L9B12, 3C5, 3D2, 3A3 and 6B6, identified via the kinetic screening, were kinetically characterized for binding AFP-L3 peptides [0656] […] Asn(G0F)-Bi [0658]
(§4) The rabbit antibody capture system was immobilized on flow cells 1-4 as described with 700 to 800 RU. Flow cell 1 served as reference, flow cells 2, 3 and 4 were used for interaction measurements. 150 nM antibodies 1-5 were injected at 10 μL/min for 30 seconds. The Capture Levels (CL) in resonance units RU were monitored. Peptide analyte concentration series from 3.3-270 nM were injected at 60 μl/min. The association phase was monitored for 3 minutes, the dissociation phase was monitored for 10 minutes. The regeneration was performed by an injection of 10 mM Glycine pH 2.0 at 20 μL/min for 30 seconds, followed by 2 injections of 10 mM Glycine pH 2.25 for 60 seconds. The kinetic rate constants and the dissociation equilibrium constants KD were determined using a Langmuir 1:1 fitting model according to the BIAcore™ T200 Evaluation SW 3.2. Secondly, the Langmuir 1:1 fitting Scrubber-SW V2.0c was applied.

[6] = biological target: T2, AFP(243-261)[Acetyl-243; Asn(G0F)251; …; assay: as above
Protocol: as §3, §4

[7] = biological target: T1, AFP(243-261)[Asn(Fuc-GlcNAc)Bi-PEG]; assay: SPR Biacore T200, 37 C, antibody captured on C1 chip, peptide as analyte, Langmuir 1:1
Protocol: as §3, §4

[8] = biological target: T2, AFP(243-261)[Acetyl-243; Asn(G0F)251; …; assay: as above
Protocol: as §3, §4

AFP(248-256)Ac-248]amid [9] = biological target: B1; assay: affinity in solution; ratio of KD against the KD for AFP(243-261)-G0F
Protocol: as §1, §2

[10] = biological target: T1, AFP(243-261)[Asn(Fuc-GlcNAc)Bi-PEG]; assay: SPR; ratio of KD against the KD for AFP(243-261)-G0F-Bi
[11] = biological target: T3, AFP(243-261)[Ac-243; Asn(G2)251; Bi-PEG]; assay: SPR Biacore T200, 37 C; simulation for 7.3 µM-10 nM extrapolated from measured data; SPR simulation for 7.3 µM-10 nM, extrapolated lower bound
[12] = biological target: T2, AFP(243-261)[Acetyl-243; Asn(G0F)251; …; assay: SPR; ratio of KD against the KD for AFP(243-261)-G0F-Bi (reference itself)
Protocol: as §1, §2

AFP(248-256)Ac-248]amid [13] = biological target: B1; assay: SPR affinity in solution: 10 nM antibody with 200 µM-0.1 nM free peptide, free antibody read on AFP(243-261)-G0F-Bi CAP chip, n=2
Protocol: as §1, §2

[14] = biological target: T3, AFP(243-261)[Ac-243; Asn(G2)251; Bi-PEG]; assay: SPR; ratio of KD against the KD for AFP(243-261)-G0F-Bi; SPR; ratio of KD to the KD for G0F
Protocol: as §3, §4

[15] = biological target: B2; assay: SPR affinity in solution: 10 nM antibody with 120 nM-0.01 nM free peptide, free antibody read on AFP(243-261)-G0F-Bi CAP chip, n=2
Protocol: as §1, §2

[16] = biological target: T3, AFP(243-261)[Ac-243; Asn(G2)251; Bi-PEG]; assay: SPR Biacore T200, 37 C, weak binding (cell shifted to the kd column); SPR, weak binding; KD only, no rate constants
[17] = biological target: T2, AFP(243-261)[Acetyl-243; Asn(G0F)251; …; assay: SPR Biacore T200, 37 C, antibody captured on C1 chip, peptide as analyte, Langmuir 1:1; apparent value (complex binding behavior)
Protocol: as §3, §4
By visual inspection, the kinetic signature for antibody 3C5 is close to the antibody saturation for the highest shown concentration 90 nM.

Row | Binder | MR [5] | MR [6] | Kd [7] | koff [7] | kon [7] | t/2 diss [7] | Delta KD (AFP(248-256)Ac-248]amid [9]) | Delta KD [10] | Delta KD [12] | Kd (AFP(248-256)Ac-248]amid [13]) | Delta KD [14] | Kd [15] | further results
1 | B1 |  |  |  |  |  |  |  |  |  |  |  |  | binding result (mAb<AFP-L3>rRb-3C5-IgG [1]): binds; binding result (mAb<AFP-L3>rRb-19B12-IgG [2]): binds
2 | B2 |  |  |  |  |  |  |  |  |  |  |  |  | IC50 (read off the curve) (mAb<AFP-L3>rRb-19B12-IgG [3]): ~6 nM; IC50 (read off the curve) (mAb<AFP-L3>rRb-3C5-IgG [4]): ~5 nM
3 | B3 | 1.3 | 1.4 | 18 nM | 0.0047 s⁻¹ | 270000 M⁻¹ s⁻¹ | 2.5 min | > 5000 fold | > 7 fold | 1 fold | 5700 nM | > 245 fold | 0.9 nM | Kd [8]: 2.5 nM; koff [8]: 0.0015 s⁻¹; kon [8]: 600000 M⁻¹ s⁻¹; t/2 diss [8]: 8 min; Kd [11]: > 620 nM
4 | B4 | 1.5 | 1.6 | 35 nM | 0.016 s⁻¹ | 450000 M⁻¹ s⁻¹ | 0.7 min | > 5000 fold | > 11 fold | 1 fold | 12600 nM | > 180 fold | 0.4 nM | Kd [16]: 560 nM; Kd [17]: 3.1 nM; koff [17]: 0.0032 s⁻¹; kon [17]: 1e+06 M⁻¹ s⁻¹
